Assay results taken from patent US20250002610A1 (Genmab, published 2025).

T1: His-tagged recombinant Human FAPα (Acro Biosystems, Cat #FAP-H5244-100ug) (human, UniProt Q12884 26-760)
T1 construct: Bought reagent; not shown: His tag
T1 sequence (looked up): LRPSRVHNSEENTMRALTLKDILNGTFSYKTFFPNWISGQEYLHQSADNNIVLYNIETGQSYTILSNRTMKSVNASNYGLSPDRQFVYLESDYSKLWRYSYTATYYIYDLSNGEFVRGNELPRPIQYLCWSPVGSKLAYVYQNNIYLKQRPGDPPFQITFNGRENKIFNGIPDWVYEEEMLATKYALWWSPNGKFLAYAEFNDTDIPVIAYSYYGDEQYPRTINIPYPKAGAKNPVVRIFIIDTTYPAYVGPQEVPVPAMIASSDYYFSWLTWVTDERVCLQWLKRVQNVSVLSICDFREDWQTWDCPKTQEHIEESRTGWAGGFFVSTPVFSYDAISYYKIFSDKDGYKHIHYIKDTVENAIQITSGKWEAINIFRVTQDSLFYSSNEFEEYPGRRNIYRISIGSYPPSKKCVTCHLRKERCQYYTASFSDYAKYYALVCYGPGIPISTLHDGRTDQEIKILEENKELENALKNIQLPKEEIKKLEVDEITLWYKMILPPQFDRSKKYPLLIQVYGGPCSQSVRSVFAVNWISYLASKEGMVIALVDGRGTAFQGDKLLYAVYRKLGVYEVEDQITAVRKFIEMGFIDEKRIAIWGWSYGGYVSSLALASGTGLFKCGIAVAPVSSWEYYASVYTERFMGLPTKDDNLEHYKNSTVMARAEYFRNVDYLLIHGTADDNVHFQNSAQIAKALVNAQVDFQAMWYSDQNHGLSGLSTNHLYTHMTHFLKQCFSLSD


Target: T1, His-tagged recombinant Human FAPα (Acro …)
Test: BLI (Octet), antigen immobilized on AR2G sensors, average of three experiments
Procedure: Experiments were carried out while shaking at 1,000 RPM at 30° C. Amine Reactive 2nd Generation (AR2G) biosensors (Sartorius, Cat #18-5092) were activated by reaction with 20 mM EDC (N-(3-Dimethylaminopropyl)-N′-ethylcarbodiimide hydrochloride) (Sigma-Aldrich, Cat #03449) and 10 mM s-NHS (N-hydroxysulfosuccinimide sodium salt) (Sigma-Aldrich, Cat #56485) for 300 s. The activated AR2G sensors were loaded with 2.5 μg/mL His-tagged recombinant Human FAPα (Acro Biosystems, Cat #FAP-H5244-100ug) in 10 mM Sodium Acetate pH 5.0 (Sartorius, Cat #18-1069) or 2.5 μg/mL His-tagged recombinant Cynomolgus FAPα (Acro Biosystems, Cat #FAP-C52H3-100ug) in 10 mM Sodium Acetate pH 5.0 for 600 s and quenched with 1 M ethanolamine pH 8.5 (Sartorius Cat #18-1071) for 300 s. After a baseline measurement in Sample Diluent (1000 s; Sartorius, Cat #18-1104), the association (100 s) and dissociation (4,000 s) of functionally monovalent antibody was determined using a concentration range of 0.78-800 nM with two-fold dilution steps in Sample Diluent. The molecular mass of the antibodies used for the calculations was calculated from the sequences.
The Y-axis was aligned to the last 10 s of the baseline; Interstep Correction alignment to dissociation and Savitzky-Golay filtering were applied. Data traces with a response <0.05 nm were excluded from analysis. […] The data were fitted with the 1:1 Global Full fit model using a window of interest for the association of 100 s and dissociation time set 4,000 s.

Binder	Kd [nM]	koff [s⁻¹]	kon [M⁻¹ s⁻¹]
BisG1-FAPα-FERL/DR4-FERR (bispecific antibody, human IgG1, kappa, lambda, Human IgG1 bispecific made by controlled Fab-arm exchange of IgG1-FAPα-FERL and IgG1-DR4-FERR; monovalent for FAPα and for DR4; also called GEN1057) heavy 1: EVQLLESGGGLVQPGGSPRLSCEASGFTFSSYALSWVRQAPGKGLEWVSAISGSGGGRYYADSVKGRFTISRDNSKNTLFLQMNSLRAEDTAVYYCAKEGYSSSGTYWDHWGQGTLVTVSSASTKGPSVFPLAPSSKSTSGGTAALGCLVKDYFPEPVTVSWNSGALTSGVHTFPAVLQSSGLYSLSSVVTVPSSSLGTQTYICNVNHKPSNTKVDKRVEPKSCDKTHTCPPCPAPEFERGPSVFLFPPKPKDTLMISRTPEVTCVVVDVSHEDPEVKFNWYVDGVEVHNAKTKPREEQYNSTYRVVSVLTVLHQDWLNGKEYKCKVSNKALPAPIEKTISKAKGQPREPQVYTLPPSREEMTKNQVSLTCLVKGFYPSDIAVEWESNGQPENNYKTTPPVLDSDGSFLLYSKLTVDKSRWQQGNVFSCSVMHEALHNHYTQKSLSLSPG light 1: AIQMTQSPSSVSASVGDRVTITCRASQGVSSWLAWYQQKPGRAPKLLIYVASTLQSGVPSRFSGSGSGTDFTLTINSLQPEDFATYYCQQANSFPPTFGQGTRLEMKRTVAAPSVFIFPPSDEQLKSGTASVVCLLNNFYPREAKVQWKVDNALQSGNSQESVTEQDSKDSTYSLSSTLTLSKADYEKHKVYACEVTHQGLSSPVTKSFNRGEC heavy 2: QVQLQESGPGLVKPSGTLSLTCAVSGGSISSYSWWSWIRQPPGKGLEWIGELYHSGSTNYNPSLKSRVTISVDKSKNQFSLKLRSVTAADTAVYYCVRGVATIDYWGQGTLVTVSSASTKGPSVFPLAPSSKSTSGGTAALGCLVKDYFPEPVTVSWNSGALTSGVHTFPAVLQSSGLYSLSSVVTVPSSSLGTQTYICNVNHKPSNTKVDKRVEPKSCDKTHTCPPCPAPEFERGPSVFLFPPKPKDTLMISRTPEVTCVVVDVSHEDPEVKFNWYVDGVEVHNAKTKPREEQYNSTYRVVSVLTVLHQDWLNGKEYKCKVSNKALPAPIEKTISKAKGQPREPQVYTLPPSREEMTKNQVSLTCLVKGFYPSDIAVEWESNGQPENNYKTTPPVLDSDGSFFLYSRLTVDKSRWQQGNVFSCSVMHEALHNHYTQKSLSLSPG light 2: QSALTQPPSASGSPGQSVTISCTGTSSDVGGYNFVSWYQQDPGKAPKLLIYEVTKRPSGVPDRFSGSKSGNTASLTVSGLQAEDEADYYCSSYAGSNNVMFGGGTKLTVLGQPKAAPSVTLFPPSSEELQANKATLVCLISDFYPGAVTVAWKADSSPVKAGVETTTPSKQSNNKYAASSYLSLTPEQWKSHRSYSCQVTHEGSTVEKTVAPTECS	0.026	3e-05	1.1e+06
BisG1-FAPα-FERL/b12-FERR (bispecific antibody, human IgG1, kappa) heavy 1: EVQLLESGGGLVQPGGSPRLSCEASGFTFSSYALSWVRQAPGKGLEWVSAISGSGGGRYYADSVKGRFTISRDNSKNTLFLQMNSLRAEDTAVYYCAKEGYSSSGTYWDHWGQGTLVTVSSASTKGPSVFPLAPSSKSTSGGTAALGCLVKDYFPEPVTVSWNSGALTSGVHTFPAVLQSSGLYSLSSVVTVPSSSLGTQTYICNVNHKPSNTKVDKRVEPKSCDKTHTCPPCPAPEFERGPSVFLFPPKPKDTLMISRTPEVTCVVVDVSHEDPEVKFNWYVDGVEVHNAKTKPREEQYNSTYRVVSVLTVLHQDWLNGKEYKCKVSNKALPAPIEKTISKAKGQPREPQVYTLPPSREEMTKNQVSLTCLVKGFYPSDIAVEWESNGQPENNYKTTPPVLDSDGSFLLYSKLTVDKSRWQQGNVFSCSVMHEALHNHYTQKSLSLSPG light 1: AIQMTQSPSSVSASVGDRVTITCRASQGVSSWLAWYQQKPGRAPKLLIYVASTLQSGVPSRFSGSGSGTDFTLTINSLQPEDFATYYCQQANSFPPTFGQGTRLEMKRTVAAPSVFIFPPSDEQLKSGTASVVCLLNNFYPREAKVQWKVDNALQSGNSQESVTEQDSKDSTYSLSSTLTLSKADYEKHKVYACEVTHQGLSSPVTKSFNRGEC heavy 2: QVQLVQSGAEVKKPGASVKVSCQASGYRFSNFVIHWVRQAPGQRFEWMGWINPYNGNKEFSAKFQDRVTFTADTSANTAYMELRSLRSADTAVYYCARVGPYSWDDSPQDNYYMDVWGKGTTVIVSSASTKGPSVFPLAPSSKSTSGGTAALGCLVKDYFPEPVTVSWNSGALTSGVHTFPAVLQSSGLYSLSSVVTVPSSSLGTQTYICNVNHKPSNTKVDKRVEPKSCDKTHTCPPCPAPEFERGPSVFLFPPKPKDTLMISRTPEVTCVVVDVSHEDPEVKFNWYVDGVEVHNAKTKPREEQYNSTYRVVSVLTVLHQDWLNGKEYKCKVSNKALPAPIEKTISKAKGQPREPQVYTLPPSREEMTKNQVSLTCLVKGFYPSDIAVEWESNGQPENNYKTTPPVLDSDGSFFLYSRLTVDKSRWQQGNVFSCSVMHEALHNHYTQKSLSLSPG light 2: EIVLTQSPGTLSLSPGERATFSCRSSHSIRSRRVAWYQHKPGQAPRLVIHGVSNRASGISDRFSGSGSGTDFTLTITRVEPEDFALYYCQVYGASSYTFGQGTKLERKRTVAAPSVFIFPPSDEQLKSGTASVVCLLNNFYPREAKVQWKVDNALQSGNSQESVTEQDSKDSTYSLSSTLTLSKADYEKHKVYACEVTHQGLSSPVTKSFNRGEC	0.017	2.1e-05	1.2e+06
